Experiments:
Assay type in all cases: cell-based, human
[1] = system: Ewing's Sarcoma cell line Cu-1; assay: Colony formation in semi-solid agar cultures, Cu-1 cells; conditions: Cu-1, 10,000 cells; stimulus 100 ng; mean of duplicate colony counts, day 18
Experimental: (§1) Tumour cells obtained from biopsy and bone marrow specimens from patients with Ewing's Sarcoma were used in these studies. Approval for this project has been obtained from the Ethics Committee of the Royal Children's Hospital.
(§2) Single cell suspensions of tumour cells were obtained by mechanical disruption with an 18G or 21G needle or by pipetting, followed by incubation with dispase II (Boehringer) at a concentration of 1.2 units per ml for 10 minutes at 37° C. Prior to the addition to agar-medium the cells were vortexed gently to prevent clumping.
(§3) Clonal cell lines were grown in Iscove's Modified Dulbecco's Medium (IMDM) supplemented with 10% v/v foetal calf serum (FCS; CSL Limited, Melbourne, Australia) and were passaged either weekly or twice weekly. The characteristics of the Ewing Sarcoma cell lines used herein as described below:
(§4) Cell lines derived from the above primary cell lines (Al and Cu) are identified by an Arabic numeral (e.g. Al-1, Al-5, Al-8 or Cu-1).
(§5) The tumour cells were immobilised in 0.3% w/v agar containing Iscove's Modified Dulbecco's Medium (IMDM) and 10% v/v FCS. […] Cultures were scored for the presence of colonies (>40 cells) or clusters (<40 cells). The number of cells plated per culture ranged from 500 to 10,000 per ml. Colonies were counted on an Olympus dissecting microscope. […]

[2] = system: Ewing's Sarcoma cell line Al-8; assay: Colony formation in semi-solid agar cultures, Al-8 cells; conditions: Al-8, 1,000 cells; stimulus 100 ng; mean of duplicate colony counts, day 18
Experimental: as §1, §2, §3, §4, §5

[3] = system: Ewing's Sarcoma cell line Al-1; assay: Colony formation in semi-solid agar cultures, Al-1 cells; conditions: stimulus 100 ng, mean of duplicate colony counts, day 18
Experimental: as §1, §2, §3, §4, §5

[4] = system: Ewing's Sarcoma cell line Al (uncloned); assay: Colony formation in semi-solid agar cultures, Al (uncloned) cells; conditions: Al(uncloned), 5,000 cells; stimulus 100 ng; mean of duplicate colony counts, day 18
Experimental: as §1, §2, §3
The tumour cells were immobilised in 0.3% w/v agar containing Iscove's Modified Dulbecco's Medium (IMDM) and 10% v/v FCS. […] Cultures were scored for the presence of colonies (>40 cells) or clusters (<40 cells). The number of cells plated per culture ranged from 500 to 10,000 per ml. Colonies were counted on an Olympus dissecting microscope.
IL-1, IL-3, IL-4, IL-6, M-CSF, G-CSF, GM-CSF, Stem Cell Factor (SCF), TNFα, TGFα, TGFβ, EGF, aFGF, bFGF, NGF, IGF I, IGF II, PDGF and IFN-γ. […]

B1: EGF: commercially available growth factor (protein, UniProt P01133 23-1207, looked up)
Pro-epidermal growth factor: PQHWSCPEGTLAGNGNSTCVGPAPFLIFSHGNSIFRIDTEGTNYEQLVVDAGVSVIMDFHYNEKRIYWVDLERQLLQRVFLNGSRQERVCNIEKNVSGMAINWINEEVIWSNQQEGIITVTDMKGNNSHILLSALKYPANVAVDPVERFIFWSSEVAGSLYRADLDGVGVKALLETSEKITAVSLDVLDKRLFWIQYNREGSNSLICSCDYDGGSVHISKHPTQHNLFAMSLFGDRIFYSTWKMKTIWIANKHTGKDMVRINLHSSFVPLGELKVVHPLAQPKAEDDTWEPEQKLCKLRKGNCSSTVCGQDLQSHLCMCAEGYALSRDRKYCEDVNECAFWNHGCTLGCKNTPGSYYCTCPVGFVLLPDGKRCHQLVSCPRNVSECSHDCVLTSEGPLCFCPEGSVLERDGKTCSGCSSPDNGGCSQLCVPLSPVSWECDCFPGYDLQLDEKSCAASGPQPFLLFANSQDIRHMHFDGTDYGTLLSQQMGMVYALDHDPVENKIYFAHTALKWIERANMDGSQRERLIEEGVDVPEGLAVDWIGRRFYWTDRGKSLIGRSDLNGKRSKIITKENISQPRGIAVHPMAKRLFWTDTGINPRIESSSLQGLGRLVIASSDLIWPSGITIDFLTDKLYWCDAKQSVIEMANLDGSKRRRLTQNDVGHPFAVAVFEDYVWFSDWAMPSVMRVNKRTGKDRVRLQGSMLKPSSLVVVHPLAKPGADPCLYQNGGCEHICKKRLGTAWCSCREGFMKASDGKTCLALDGHQLLAGGEVDLKNQVTPLDILSKTRVSEDNITESQHMLVAEIMVSDQDDCAPVGCSMYARCISEGEDATCQCLKGFAGDGKLCSDIDECEMGVPVCPPASSKCINTEGGYVCRCSEGYQGDGIHCLDIDECQLGEHSCGENASCTNTEGGYTCMCAGRLSEPGLICPDSTPPPHLREDDHHYSVRNSDSECPLSHDGYCLHDGVCMYIEALDKYACNCVVGYIGERCQYRDLKWWELRHAGHGQQQKVIVVAVCVVVLVMLLLLSLWGAHYYRTQKLLSKNPKNPYEESSRDVRSRRPADTEDGMSSCPQPWFVVIKEHQDLKNGGQPVAGEDGQAADGSMQPTSWRQEPQLCGMGTEQGCWIPVSSDKGSCPQVMERSFHMPSYGTQTLEGGVEKPHSLLSANPLWQQRALDPPHQMELTQ
modifications: Pro-epidermal growth factor
[1]
  Colonies/Cultures: 430
[2]
  Colonies/Cultures: 68
[3]; Al-1, 1,000 cells
  Colonies/Cultures: 41
[3]; Al-1, 10,000 cells
  Colonies/Cultures: 685
[4]
  Colonies/Cultures: 258

Source: patent publication US5599789A, “Method for the treatment of tumours and sarcomas” (Amrad Corporation Limited, priority 1991, dated 1997)
